Biological target: T1, CD123 ECD E51T (human, UniProt P26951 19-305)
T1 construct: Recombinant ECD
T1 sequence: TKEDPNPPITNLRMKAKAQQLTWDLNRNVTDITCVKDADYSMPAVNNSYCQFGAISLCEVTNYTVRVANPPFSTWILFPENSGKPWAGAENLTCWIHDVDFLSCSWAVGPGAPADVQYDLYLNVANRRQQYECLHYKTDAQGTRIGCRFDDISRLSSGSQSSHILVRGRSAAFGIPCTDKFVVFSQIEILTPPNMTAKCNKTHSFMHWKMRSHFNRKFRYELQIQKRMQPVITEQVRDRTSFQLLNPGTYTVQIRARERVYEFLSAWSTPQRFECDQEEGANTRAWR
Experiment: BLI (Octet), biotinylated CD123 ECD captured on streptavidin tips, hIL3 as analyte, level at 250 s normalised to loading
Method: Binding of hIL3 (SinoBiological, PN: 11858-H08H) (analyte) to CD123 ECD wt. and variants (ligands) was performed using Streptavidin capture biosensor (SA) (Sartorius, PN: 18-5019). CD123 ECD wt. and variants were biotinylated using Biotinylation kit Type B (Abeam, PN: ab201796) following manufacturer instructions. Biotinylated CD123 ECD wt. and variants (ligands) were captured on SA tips for 1000 s to achieve a nm shift of 1.5 to 2 nm. Analyte hIL3 was titrated at 7 concentrations from 500 to 7.8 nM. Association to analyte was monitored for 300 s and dissociation for 120 s. Buffer only well was used as reference. No regeneration was performed, and a new set of tips was used for each biotinylated captured ligand. Data were analyzed using the Octet Data Analysis software HT 12.0. Due to the fast on/off nature of the interaction data were analyzed using Steady state analysis. Qualitative representation in FIG. 11 binding level were taken at 250 s association for all concentrations.

B1: hIL3 (ligand, human, UniProt P08700 20-152, looked up)
chain: APMTQTTPLKTSWVNCSNMIDEIITHLKQPPLPLLDFNNLNGEDQDILMENNLRRPNLEAFNRAVKSLQNASAIESILKNLLPCLPLATAAPTRHPIHIKDGDWNEFRRKLTFYLKTLENAQAQQTTLSLAIF
notes: also called Interleukin-3
binding result: binds

Reference: patent publication US20250326818A1 (UNIVERSIT T BASEL, published 2025)
